We go through 24 molecules from patent publication US8785135B2, “Mutant G-protein coupled receptors and methods for selecting them” (Heptares Therapeutics Limited, priority 2007, dated 2014).

The data set can be described thus: Thermostability of NTR and mutants (3H-neurotensin binding). Particulars: for Tm: neurotensin bound; for thermostability, 3H-neurotensin (agonist) binding after the heating step: heated in the absence of the agonist; for thermostability, heated in the presence of 3H-neurotensin: Ligand(+) format. The data set is classed as physicochemical. Here is the method: FIG. 12 Flow chart showing the two different assay formats of ligand (+) and ligand (−) used to determine receptor thermostability.
• 1. 340 site-directed mutants have been made between residues 61-400 of NTR. • 2. Initially, all of these mutants were assayed for thermostability using an assay measuring ^3H-neurotensin (agonist) binding after the heating step. […] Mutants tested for thermostability by heating in the absence of the agonist were re-tested using a slightly different assay where the mutants were heated in the presence of ^3H-neurotensin (Ligand(+) format in FIG. 12). […] All of these also have increased thermostability. • 5. Preferred combinations are • a. Nag7m F358A+A86L+I260A+F342A Tm 51° C. (neurotensin bound) • b. Nag7n F358A+H103A+I260A+F342A Tm 51° C. (neurotensin bound) • Wildtype NTR has a Tm of 35° C. with neurotensin bound.

Substitutions are numbered along the chain they refer to. Names may count otherwise.

B1: Nag7m: NTR mutant F358A+A86L+I260A+F342A (protein)
chain: TSESDTAGPNSDLDVNTDIYSKVLVTAIYLALFVVGTVGNSVTLFTLARKKSLQSLQSTVHYHLGSLALSDLLILLLAMPVELYNFIWVHHPWAFGDAGCRGYYFLRDACTYATALNVASLSVERYLAICHPFKAKTLMSRSRTKKFISAIWLASALLAIPMLFTMGLQNRSGDGTHPGGLVCTPIVDTATVKVVIQVNTFMSFLFPMLVISILNTVAANKLTVMVHQAAEQGRVCTVGTHNGLEHSTFNMTIEPGRVQALRHGVLVLRAVVIAFVVCWLPYHVRRLMFCYISDEQWTTALFDFYHYFYMLTNALAYVSSAINPILYNLVSANFRQVFLSTLACLCPGWRHRRKKRPTFSRKPNSMSSNHAFSTSATRETLY
Consider B1, for which the Tm stood at 51 °C.

B2: Nag7n: NTR mutant F358A+H103A+I260A+F342A (protein)
chain: B1 chain with L44A, H61A
B2: the Tm was 51 °C.

B3: C386A: NTR point mutant (protein, UniProt P20789 1-424, looked up, variant C386A)
Neurotensin receptor type 1: MHLNSSVPQGTPGEPDAQPFSGPQSEMEATFLALSLSNGSGNTSESDTAGPNSDLDVNTDIYSKVLVTAIYLALFVVGTVGNSVTAFTLARKKSLQSLQSTVHYHLGSLALSDLLILLLAMPVELYNFIWVHHPWAFGDAGCRGYYFLRDACTYATALNVASLSVERYLAICHPFKAKTLMSRSRTKKFISAIWLASALLAIPMLFTMGLQNRSGDGTHPGGLVCTPIVDTATVKVVIQVNTFMSFLFPMLVISILNTVIANKLTVMVHQAAEQGRVCTVGTHNGLEHSTFNMTIEPGRVQALRHGVLVLRAVVIAFVVCWLPYHVRRLMFCYISDEQWTTFLFDFYHYFYMLTNALFYVSSAINPILYNLVSANFRQVFLSTLAALCPGWRHRRKKRPTFSRKPNSMSSNHAFSTSATRETLY
On to B3, for which the “thermostability, 3H-neurotensin (agonist) binding after the heating step” value (shortened to “thermostability, 3H-neurotensin”) is on record as “small but significant increase in thermostability”.

B4: R392A: NTR point mutant (protein, UniProt P20789 1-424, looked up, variant R392A)
Neurotensin receptor type 1: B3 Neurotensin receptor type 1 with A386C, R392A
With B4, the “thermostability, 3H-neurotensin” value is given as “small but significant increase in thermostability”.

B5: T207A: NTR point mutant (protein, UniProt P20789 1-424, looked up, variant T207A)
Neurotensin receptor type 1: B3 Neurotensin receptor type 1 with T207A, A386C
For the molecule B5, the “thermostability, 3H-neurotensin” value is recorded as “small but significant increase in thermostability”.

B6: V268A: NTR point mutant (protein, UniProt P20789 1-424, looked up, variant V268A)
Neurotensin receptor type 1: B3 Neurotensin receptor type 1 with V268A, A386C
For B6, the “thermostability, 3H-neurotensin” value was “small but significant increase in thermostability”.

B7: D113A: NTR point mutant (protein, UniProt P20789 1-424, looked up, variant D113A)
Neurotensin receptor type 1: B3 Neurotensin receptor type 1 with D113A, A386C
For B7, the “thermostability, 3H-neurotensin” value is listed as “small but significant increase in thermostability”.

B8: H393A: NTR point mutant (protein, UniProt P20789 1-424, looked up, variant H393A)
Neurotensin receptor type 1: B3 Neurotensin receptor type 1 with A386C, H393A
As to B8, the “thermostability, 3H-neurotensin” value is “small but significant increase in thermostability”.

B9: F189A: NTR point mutant (protein, UniProt P20789 1-424, looked up, variant F189A)
Neurotensin receptor type 1: B3 Neurotensin receptor type 1 with F189A, A386C
As to B9, the “thermostability, 3H-neurotensin” value is on record as “small but significant increase in thermostability”.

B10: S362A: NTR point mutant (protein, UniProt P20789 1-424, looked up, variant S362A)
Neurotensin receptor type 1: B3 Neurotensin receptor type 1 with S362A, A386C
As to B10, the “thermostability, heated in the presence of 3H-neurotensin” value is “improved thermostability” and the “thermostability, 3H-neurotensin” value is recorded as “small but significant increase in thermostability”.

B11: A120L: NTR point mutant (protein, UniProt P20789 1-424, looked up, variant A120L)
Neurotensin receptor type 1: B3 Neurotensin receptor type 1 with A120L, A386C
For B11, the “thermostability, 3H-neurotensin” value is given as “small but significant increase in thermostability”.

B12: L72A: NTR point mutant (protein, UniProt P20789 1-424, looked up, variant L72A)
Neurotensin receptor type 1: B3 Neurotensin receptor type 1 with L72A, A386C
B12: the “thermostability, 3H-neurotensin” value is listed as “small but significant increase in thermostability”.

B13: N262A: NTR point mutant (protein, UniProt P20789 1-424, looked up, variant N262A)
Neurotensin receptor type 1: B3 Neurotensin receptor type 1 with N262A, A386C
Consider B13, for which the “thermostability, 3H-neurotensin” value was “small but significant increase in thermostability”.

B14: F358A: NTR point mutant (protein, UniProt P20789 1-424, looked up, variant F358A)
Neurotensin receptor type 1: B3 Neurotensin receptor type 1 with F358A, A386C
Take B14: the “thermostability, heated in the presence of 3H-neurotensin” value is reported as “improved thermostability” and the “thermostability, 3H-neurotensin” value is listed as “small but significant increase in thermostability”.

B15: I116A: NTR point mutant (protein, UniProt P20789 1-424, looked up, variant I116A)
Neurotensin receptor type 1: B3 Neurotensin receptor type 1 with I116A, A386C
B15: the “thermostability, 3H-neurotensin” value is listed as “small but significant increase in thermostability”.

B16: A155L: NTR point mutant (protein, UniProt P20789 1-424, looked up, variant A155L)
Neurotensin receptor type 1: B3 Neurotensin receptor type 1 with A155L, A386C
On to B16, for which the “thermostability, 3H-neurotensin” value was “small but significant increase in thermostability”.

B17: P399A: NTR point mutant (protein, UniProt P20789 1-424, looked up, variant P399A)
Neurotensin receptor type 1: B3 Neurotensin receptor type 1 with A386C, P399A
As to B17, the “thermostability, 3H-neurotensin” value is given as “small but significant increase in thermostability”.

B18: L109A: NTR point mutant (protein, UniProt P20789 1-424, looked up, variant L109A)
Neurotensin receptor type 1: B3 Neurotensin receptor type 1 with L109A, A386C
Consider B18, for which the “thermostability, 3H-neurotensin” value is reported as “small but significant increase in thermostability”.

B19: L205A: NTR point mutant (protein, UniProt P20789 1-424, looked up, variant L205A)
Neurotensin receptor type 1: B3 Neurotensin receptor type 1 with L205A, A386C
On to B19, for which the “thermostability, 3H-neurotensin” value is listed as “small but significant increase in thermostability”.

B20: K397A: NTR point mutant (protein, UniProt P20789 1-424, looked up, variant K397A)
Neurotensin receptor type 1: B3 Neurotensin receptor type 1 with A386C, K397A
With B20, the “thermostability, 3H-neurotensin” value is listed as “small but significant increase in thermostability”.

B21: Y351A: NTR point mutant (protein, UniProt P20789 1-424, looked up, variant Y351A)
Neurotensin receptor type 1: B3 Neurotensin receptor type 1 with Y351A, A386C
For the molecule B21, the “thermostability, 3H-neurotensin” value is “small but significant increase in thermostability”.

B22: G209A: NTR point mutant (protein, UniProt P20789 1-424, looked up, variant G209A)
Neurotensin receptor type 1: B3 Neurotensin receptor type 1 with G209A, A386C
B22: the “thermostability, 3H-neurotensin” value was “small but significant increase in thermostability”.

B23: M181A: NTR point mutant (protein, UniProt P20789 1-424, looked up, variant M181A)
Neurotensin receptor type 1: B3 Neurotensin receptor type 1 with M181A, A386C
Take B23: the “thermostability, 3H-neurotensin” value was “small but significant increase in thermostability”.

B24: S108A: NTR point mutant (protein, UniProt P20789 1-424, looked up, variant S108A)
Neurotensin receptor type 1: B3 Neurotensin receptor type 1 with S108A, A386C
Turning to B24, the “thermostability, 3H-neurotensin” value was “small but significant increase in thermostability”.
